This is an account of results in US20260193309A1 (BRIGHAM AND WOMEN S HOSPITAL, published 2026).

The labels stand for the following.
B1: human CEACAM1 IgV domain, wild type (tagless hCEACAM1 IgV domain) (receptor)
chain: QLTTESMPFNVAEGKEVLLLVHNLPQQLFGYSWYKGERVDGNRQIVGYAIGTQQATPGPANSGRETIYPNASLLIQNVTQNDTGFYTLQVIKSDLVNEEATGQFHVYP
notes: also called hCEACAM1 WT; WT

Series [1] deals with the molecule itself. In words: PDB-PISA analysis of the dimer crystal structure.
Series [2] deals with the molecule itself. The series can be described thus: DSF and SEC-MALS (FIGS. 14B and 14C). A general note: SEC sorts molecules by how far they enter the pores of the column.
In series [3] the target is B1. The series can be described thus: structure of the heterodimer (FIG. 10C).
Series [4] addresses B1. In words: ELISA binding assay, tagless hCEACAM1 IgV protein added to WT hCEACAM1; signal given as fold response relative to WT. (In general: An ELISA detects its analyte on a solid surface through an enzyme-linked reagent.)
Series [5] concerns the target B1. In words: PDB-PISA analysis of the dimer crystal structure.

Take B1: the “PDB dimer formation score (PDB-PISA)” value in series [1] is 0.89.

B2: hCEACAM1 IgV domain mutant I91A (receptor)
chain: QLTTESMPFNVAEGKEVLLLVHNLPQQLFGYSWYKGERVDGNRQIVGYAIGTQQATPGPANSGRETIYPNASLLIQNVTQNDTGFYTLQVAKSDLVNEEATGQFHVYP
notes: also called hCEACAM1 I91A
As to B2, the binding result in series [2] was “binds”.

B3: hCEACAM1 IgV domain mutant V39A (receptor)
chain: QLTTESMPFNVAEGKEVLLLVHNLPQQLFGYSWYKGERADGNRQIVGYAIGTQQATPGPANSGRETIYPNASLLIQNVTQNDTGFYTLQVIKSDLVNEEATGQFHVYP
notes: also called hCEACAM1 V39A
On to B3, for which the binding result in series [2] is on record as “binds”.

B4: hCEACAM1 IgV domain variant D40R (receptor)
chain: QLTTESMPFNVAEGKEVLLLVHNLPQQLFGYSWYKGERVRGNRQIVGYAIGTQQATPGPANSGRETIYPNASLLIQNVTQNDTGFYTLQVIKSDLVNEEATGQFHVYP
notes: also called hCEACAM1 D40R
For B4, the “PDB dimer formation score (PDB-PISA)” value in series [1] was determined as 0.93.

B5: hCEACAM1 IgV domain variant R38D/G41S (receptor)
chain: QLTTESMPFNVAEGKEVLLLVHNLPQQLFGYSWYKGEDVDSNRQIVGYAIGTQQATPGPANSGRETIYPNASLLIQNVTQNDTGFYTLQVIKSDLVNEEATGQFHVYP
notes: also called R38D G41S monomer
Regarding B5, the binding result in series [3] was “binds”.

B6: hCEACAM1 IgV domain variant Q89H (receptor)
chain: QLTTESMPFNVAEGKEVLLLVHNLPQQLFGYSWYKGERVDGNRQIVGYAIGTQQATPGPANSGRETIYPNASLLIQNVTQNDTGFYTLHVIKSDLVNEEATGQFHVYP
notes: also called tagless Q89H; hCEACAM1 Q89H
As to B6, the binding result in series [4] is reported as “binds”. In addition, the “PDB dimer formation score (PDB-PISA)” value in series [1] is 0.96.

B7: hCEACAM1 IgV domain variant R38D (receptor)
chain: QLTTESMPFNVAEGKEVLLLVHNLPQQLFGYSWYKGEDVDGNRQIVGYAIGTQQATPGPANSGRETIYPNASLLIQNVTQNDTGFYTLQVIKSDLVNEEATGQFHVYP
notes: also called tagless R38D; hCEACAM1 R38D
B7: in series [5], the “PDB dimer formation score (PDB-PISA)” value turned out to be 0.91.
